The record followed here is IntAct's records for PubMed 12878161.

First the molecules themselves.
B1: Tripartite motif-containing protein 5 (Homo sapiens), Q9C035-4 (parent)
chain: MASGILVNVKEEVTCPICLELLTQPLSLDCGHSFCQACLTANHKKSMLDKGESSCPVCRISYQPENIRPNRHVANIVEKLREVKLSPEGQKVDHCARHGEKLLLFCQEDGKVICWLCERSQEHRGHHTFLTEEVAREYQVKLQAALEMLRQKQQEAEELEADIREEKASWKTQIQYDKTNVLADFEQLRDILDWEESNELQNLEKEEEDILKSLTNSETEMVQQTQSLRELISDLEHRLQGSVMELLQGVDGVIKRTENVTLKKPETFPKNQRRVFRAPDLKGMLEVFRELTDVRRYWGWSAMARSRFTATSTSQIQAILLPQPPK
partner: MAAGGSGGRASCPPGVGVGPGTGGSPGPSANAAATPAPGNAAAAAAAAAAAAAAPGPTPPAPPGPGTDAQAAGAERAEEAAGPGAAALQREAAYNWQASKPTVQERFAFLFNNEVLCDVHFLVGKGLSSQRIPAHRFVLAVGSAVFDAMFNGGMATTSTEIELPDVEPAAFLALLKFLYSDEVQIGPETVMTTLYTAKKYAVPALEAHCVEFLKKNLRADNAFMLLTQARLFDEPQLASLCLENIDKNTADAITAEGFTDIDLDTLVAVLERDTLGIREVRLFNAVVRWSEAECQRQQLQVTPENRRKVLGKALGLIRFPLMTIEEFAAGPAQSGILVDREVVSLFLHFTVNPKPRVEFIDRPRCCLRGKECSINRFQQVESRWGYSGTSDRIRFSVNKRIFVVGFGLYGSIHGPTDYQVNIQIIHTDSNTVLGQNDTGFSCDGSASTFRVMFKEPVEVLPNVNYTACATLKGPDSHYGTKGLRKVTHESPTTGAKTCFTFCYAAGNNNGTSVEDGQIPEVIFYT

In this assay the parent is B1. The settings on record: with btbd2_human BTBD2, Q9BX70.
In the case of C15A;C18A, the “effect of a mutation on the interaction” value is reported as “decreasing interaction”.
